Measured values reported in article PMC4971840.

Each substance was assayed against GST-CypA (human cyclophilin A fused to GST), P62937-1 (assay: His6-HIVCA pull-down assay, SDS/PAGE band densitometry). Details: n = 3; *P < 0.05; parent: est. 0.45; read off a plot.

Row | Substance | other: CypA/CA ratio
1 | wild-type HIV-1 capsid protein with an N-terminal 6-his tag (His6-HIVCA) (from UniProt P04591) A77P | 0.063

Same assay, conditions: n = 3; parent: est. 0.45; read off a plot

Row | Substance | other: CypA/CA ratio
2 | wild-type HIV-1 capsid protein with an N-terminal 6-his tag (His6-HIVCA) (from UniProt P04591) A78V | 0.43
3 | wild-type HIV-1 capsid protein with an N-terminal 6-his tag (His6-HIVCA) (from UniProt P04591) L189F | 0.53
4 | wild-type HIV-1 capsid protein with an N-terminal 6-his tag (His6-HIVCA) (from UniProt P04591) L189I | 0.36
5 | wild-type HIV-1 capsid protein with an N-terminal 6-his tag (His6-HIVCA) (from UniProt P04591) L189P | 0.43
6 | wild-type HIV-1 capsid protein with an N-terminal 6-his tag (His6-HIVCA) (from UniProt P04591) W23A | 0.26
